Laboratory results as given in publication PMC4725963.

Molecular target: CdiA-CT_(PA0041), C-terminal (CT) toxin domain of CdiA_(PA0041) of P. aeruginosa PAO1 (P. aeruginosa PAO1)

Substance: CdiI_(PA2462)-His6, immunity protein of the cdi_(PA2462) locus of P. aeruginosa PAO1 (natural protein)
- decrease of CFU/ml of E. coli co-producing CdiA-CT (PA0041) (1% arabinose) with the non-cognate CdiI (PA2462)-His6 (1 mM IPTG), after 6 h of culture: no protection: 6 logs
